Assay results published in US20140308201A1 (Novartis, published 2014).

T1: Human FGFR2 IIIb D1-3 (human)
T1 construct: Extracellular domains D1-3 with C-terminal tag, made in HEK293T; also called recombinant human FGFR2 IIIb; hFGFR2
T1 chain: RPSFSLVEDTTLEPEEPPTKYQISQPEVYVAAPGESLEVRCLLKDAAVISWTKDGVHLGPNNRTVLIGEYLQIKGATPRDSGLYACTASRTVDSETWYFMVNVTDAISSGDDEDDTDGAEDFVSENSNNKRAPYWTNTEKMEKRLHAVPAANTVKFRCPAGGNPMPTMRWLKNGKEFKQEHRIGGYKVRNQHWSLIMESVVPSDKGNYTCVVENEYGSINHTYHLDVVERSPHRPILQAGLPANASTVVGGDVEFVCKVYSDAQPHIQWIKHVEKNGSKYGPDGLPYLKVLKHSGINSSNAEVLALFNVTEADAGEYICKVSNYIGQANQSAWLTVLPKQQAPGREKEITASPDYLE

T2: Mouse FGFR2 IIIb D1-3 (mouse)
T2 chain: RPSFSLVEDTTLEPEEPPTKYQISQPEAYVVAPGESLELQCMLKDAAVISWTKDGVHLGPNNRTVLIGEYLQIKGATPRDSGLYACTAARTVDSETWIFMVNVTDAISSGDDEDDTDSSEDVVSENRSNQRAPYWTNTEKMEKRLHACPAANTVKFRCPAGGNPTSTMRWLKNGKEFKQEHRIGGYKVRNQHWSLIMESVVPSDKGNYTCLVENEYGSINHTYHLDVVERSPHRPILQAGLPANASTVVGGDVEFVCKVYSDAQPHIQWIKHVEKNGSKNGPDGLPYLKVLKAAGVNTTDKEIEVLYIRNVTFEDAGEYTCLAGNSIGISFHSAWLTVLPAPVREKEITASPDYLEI

T3: Rat FGFR2 IIIb D1-3 (rat)
T3 chain: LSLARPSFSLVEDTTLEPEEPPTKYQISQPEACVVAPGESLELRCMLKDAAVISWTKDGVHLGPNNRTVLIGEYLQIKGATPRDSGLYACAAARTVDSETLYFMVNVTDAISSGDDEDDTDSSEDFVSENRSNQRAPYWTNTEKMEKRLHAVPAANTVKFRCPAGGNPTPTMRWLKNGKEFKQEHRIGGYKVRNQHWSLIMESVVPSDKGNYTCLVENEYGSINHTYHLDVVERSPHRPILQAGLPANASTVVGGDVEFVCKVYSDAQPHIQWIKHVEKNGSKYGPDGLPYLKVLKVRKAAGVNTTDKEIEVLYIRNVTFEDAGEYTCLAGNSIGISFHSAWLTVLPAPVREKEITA

T4: Cynomolgus monkey FGFR2 IIIb D1-3 (cynomolgus monkey)
T4 construct: also called Cyno FGFR2 IIIb
T4 chain: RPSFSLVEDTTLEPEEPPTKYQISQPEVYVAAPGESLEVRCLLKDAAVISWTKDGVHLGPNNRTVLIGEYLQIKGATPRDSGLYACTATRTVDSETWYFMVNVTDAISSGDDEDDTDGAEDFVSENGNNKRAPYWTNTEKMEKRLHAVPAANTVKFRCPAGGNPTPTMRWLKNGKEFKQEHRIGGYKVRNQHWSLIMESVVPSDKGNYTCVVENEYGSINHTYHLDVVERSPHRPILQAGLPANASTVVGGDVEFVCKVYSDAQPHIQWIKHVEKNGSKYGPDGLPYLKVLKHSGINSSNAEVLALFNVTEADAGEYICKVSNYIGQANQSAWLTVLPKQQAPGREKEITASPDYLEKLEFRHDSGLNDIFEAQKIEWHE

T5: FGFR2 D2-D3 Construct (human)
T5 construct: E. coli made, not glycosylated; also called E. Coli. derived FGFR2D2-D3 protein
T5 chain: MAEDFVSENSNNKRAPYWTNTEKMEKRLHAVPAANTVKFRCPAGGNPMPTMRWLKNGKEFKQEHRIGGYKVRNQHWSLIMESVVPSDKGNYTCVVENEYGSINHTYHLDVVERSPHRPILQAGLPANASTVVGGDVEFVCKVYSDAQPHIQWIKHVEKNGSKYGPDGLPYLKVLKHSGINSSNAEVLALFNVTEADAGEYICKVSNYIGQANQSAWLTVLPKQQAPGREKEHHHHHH

B1: mAb20562 (antibody, human IgG1, kappa, V domains shown)
VH: EVQLLESGGGLVQPGGSLRLSCAASGFTFSDYAMSWVRQAPGKGLEWVSVIEGDASYTHYADSVRGRFTISRDNSKNTLYLQMNSLRAEDTAVYYCARERTYSSAFDYWGQGTLVTVSS
VL: DIQMTQSPSSLSASVGDRVTITCRASQDISSDLNWYQQKPGKAPKLLIYDASNLQSGVPSRFSGSGSGTDFTLTISSLQPEDFATYYCQQHYSPSHTFGQGTKVEIKR
notes: human IgG1
B2: mAb12439 (antibody, human IgG1, kappa, V domains shown)
VH: QVQLVQSGAEVKKPGASVKVSCKASGYTFTSYDISWVRQAPGQGLEWMGWINPYNGGTNYAQKFQGRVTMTRDTSISTAYMELSRLRSEDTAVYYCAREGSGMIVYPGWSYAFDYWGQGTLVTVSS
VL: DIQMTQSPSSLSASVGDRVTITCRASQDISNDLGWYQQKPGKAPKLLIYAASSLQSGVPSRFSGSGSGTDFTLTISSLQPEDFATYYCQQHYHTPNTFGQGTKVEIKR
notes: HuCAL human IgG1
B3: mAb12947 (antibody, human IgG1, kappa, V domains shown)
VH: QVQLVQSGAEVKKPGSSVKVSCKASGGTFSSYAISWVRQAPGQGLEWMGSIQPTAGPARYAQKFQGRVTITADESTSTAYMELSSLRSEDTAVYYCARASLYSVATGSYWKVYHPFDSWGQGTLVTVSS
VL: DIQMTQSPSSLSASVGDRVTITCRASQDIYSYLAWYQQKPGKAPKLLIYDASSLQSGVPSRFSGSGSGTDFTLTISSLQPEDFATYYCQQADQYPVTFGQGTKVEIKR
notes: HuCAL human IgG1
B4: mAb20811 (antibody, human IgG1, kappa, V domains shown)
VH: QVQLLESGGGLVQPGGSLRLSCAASGFTFSDYAMSWVRQAPGKGLEWVSTIEGDSNYIEYADSVKGRFTISRDNSKNTLYLQMNSLRAEDTAVYYCARERTYSSAFDYWGQGTLVTVSS
VL: DIQMTQSPSSLSASVGDRVTITCRASQDISSDLNWYQQKPGKAPKLLIYDASNLQSGVPSRFSGSGSGTDFTLTISSLQPEDFATYYCHQWYSTLYTFGQGTKVEIKR
notes: IgG
B5: mAb10164 (antibody, human IgG1, lambda, V domains shown)
VH: QVQLVESGGGLVKPGGSLRLSCAASGFTFSSYALSWVRQAPGKGLEWVGRIRSKIDGGTTDYAAPVKGRFTISRDDSKNTLYLQMNSLKTEDTAVYYCARDRSPSDSSAFAIWGQGTLVTVSS
VL: DIELTQPPSVSVSPGQTASITCSGDNLGSQYVDWYQQKPGQAPVLVIYDDNDRPSGIPERFSGSNSGNTATLTISGTQAEDEADYYCQSWDSLSVVFGGGTKLTVLG
notes: HuCAL human IgG1
B6: mAb20437 (antibody, human IgG1, lambda, V domains shown)
VH: EVQLVESGGGLVKPGGSLRLSCAASGFTFSSYALSWVRQAPGKGLEWVGRIRSRIEGGTTDYAAPVRGRFTISRDDSKNTLYLQMNSLKTEDTAVYYCARDRSPSDSSAFAIWGQGTLVTVSS
VL: SYELTQPLSVSVALGQTARITCSGDNLGSQYVDWYQQKPGQAPVLVIYDDNDRPSGIPERFSGSNSGNTATLTISRAQAGDEADYYCQSWDSLSVVFGGGTKLTVLG
notes: human IgG1
B7: mAb12422 (antibody, human IgG1, kappa, V domains shown)
VH: QVQLVQSGAEVKKPGSSVKVSCKASGGTFSSYAISWVRQAPGQGLEWMGYISPYMGETHYAQKFQGRVTITADESTSTAYMELSSLRSEDTAVYYCARESYEYFDIWGQGTLVTVSS
VL: DIQMTQSPSSLSASVGDRVTITCRASQSISNDLAWYQQKPGKAPKLLIYATSILQSGVPSRFSGSGSGTDFTLTISSLQPEDFATYYCLQYYDYSYTFGQGTKVEIKR
notes: HuCAL human IgG1
B8: mAb11725 (antibody, human IgG1, lambda, V domains shown)
VH: QVQLLESGGGLVQPGGSLRLSCAASGFTFNTYWLHWVRQAPGKGLEWVSVISSDSSSTYYADSVKGRFTISRDNSKNTLYLQMNSLRAEDTAVYYCARDSRLDYWGQGTLVTVSS
VL: DIELTQPPSVSVSPGQTASITCSGDSIGDTYVDWYQQKPGQAPVLVIYDDIDRPSGIPERFSGSNSGNTATLTISGTQAEDEADYYCYVYAWTGTSNVFGGGTKLTVLG
notes: HuCAL human IgG1

Legend:
Human FGFR2 IIIb D1-3 [1] = biological target: T1, Human FGFR2 IIIb D1-3; assay: SPR Biacore, similar assay conditions
Human FGFR2 IIIb D1-3 [2] = biological target: T1, Human FGFR2 IIIb D1-3; assay: SPR Biacore, method as Example 2
Protocol: (§1) For kinetic measurements, experiments were performed in which the antibodies were immobilized to the sensor chip surface and the ability of the FGFR proteins described above listed in Table 1 to bind in free solution was determined Briefly, 50 μg/ml of anti-human Fc antibody at pH 4.75 was immobilized on a CM5 sensor chip through amine coupling at flow rate of 10 μl/minute on all four flow cells to reach 6000 RUs. […] Subsequently, 0.078-100 nM of FGFR receptors, diluted in a 2-fold series, were injected at a flow rate of 80 μl/min for 7 min over both reference and test flow cells. Dissociation of the binding was followed for 10 min using HBS-EP⁺ supplemented with 0.5 mg/ml of BSA and 10 μg/ml heparin as running buffer. After each injection cycle, the chip surface was regenerated with 10 mM glycine, pH 2.0 at 60 μl/min for 70 s.

Mouse FGFR2 IIIb D1-3 = biological target: T2, Mouse FGFR2 IIIb D1-3; assay: SPR Biacore, IgG captured via anti-human Fc, soluble FGFR as analyte
Protocol: (§2) Affinity of the antibodies to FGFR2 species orthologues was determined using Biacore technology using a Biacore T100 instrument (GE Systems) and with CM5 sensor chips.
as §1

Rat FGFR2 IIIb D1-3 = biological target: T3, Rat FGFR2 IIIb D1-3; assay: as above
Protocol: as §2, §1

Human FGFR2 IIIb D1-3 [3] = biological target: T1, Human FGFR2 IIIb D1-3; assay: as above
Protocol: as §2, §1

[4] = biological target: T4, Cynomolgus monkey FGFR2 IIIb D1-3; assay: as above
Protocol: as §2, §1

Human FGFR4 ECD = biological target: T6, Human FGFR4 ECD (human, UniProt P22455 22-369); assay: screening of panning outputs for specificity and cross-reactivity (assays of Example 1)
T6 construct: Extracellular domain with C-terminal tag

Human FGFR2 IIIb D1-3 [5] = biological target: T1, Human FGFR2 IIIb D1-3; assay: SET or Biacore, IgG
Human FGFR2 IIIb D1-3 [6] = biological target: T1, Human FGFR2 IIIb D1-3; assay: SPR Biacore, method as Example 2
Protocol: as §1

[7] = biological target: T4, Cynomolgus monkey FGFR2 IIIb D1-3; assay: SPR Biacore, method as Example 2
Protocol: as §1

FGFR2 D2-D3 Construct = biological target: T5, FGFR2 D2-D3 Construct; assay: HDx-MS, antigen incubated 30 min with antibody
Protocol: The epitope mapping experiments described in this example were performed on a Waters HDx-MS platform, which includes a LEAP autosampler, nanoACQUITY UPLC System, and Synapt G2 mass spectrometer. The studies were automated by a LEAP autosampler operated by the LeapShell software, which performed initiation of the deuterium exchange reaction, reaction time control, quench reaction, injection onto the UPLC system and digestion time control. The Leap autosampler was equipped with two temperature controlled stacks maintained at 25° C. for HDx reaction and maintained at 2° C. for storage of protein and quench solution, respectively. Triplicate control experiments were carried out on antigen at a deuterium exchange time of 25 minutes. HDX was quenched with quenching buffer (6 M urea and 1 M TCEP pH=2.5). […] Triplicate experiments were carried out on antigen-mAb complex just as the control experiments except in these experiments the antigen in incubated for 30 min with the antibody at 25° C. prior to deuterium exchange.

complement factor Clq = biological target: T7, complement factor Clq (UniProt P02745 23-245; P02746 28-253; P02747 29-245); assay: ELISA, antibody coated in serial dilution, constant C1q; inferred from about 50% coating
T7 construct: bought (Sigma C1740); also called C1q; Complement component Clq (Sigma C1740)
T7 sequence (P02745 23-245 limits assumed, chain 1 of 3): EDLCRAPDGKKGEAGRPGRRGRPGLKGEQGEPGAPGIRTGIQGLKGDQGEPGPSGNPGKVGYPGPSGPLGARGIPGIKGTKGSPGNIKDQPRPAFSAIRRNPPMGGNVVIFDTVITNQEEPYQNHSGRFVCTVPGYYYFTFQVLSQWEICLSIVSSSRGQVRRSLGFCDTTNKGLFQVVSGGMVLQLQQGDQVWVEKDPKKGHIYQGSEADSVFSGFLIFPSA
T7 sequence (P02746 28-253 limits assumed, chain 2 of 3): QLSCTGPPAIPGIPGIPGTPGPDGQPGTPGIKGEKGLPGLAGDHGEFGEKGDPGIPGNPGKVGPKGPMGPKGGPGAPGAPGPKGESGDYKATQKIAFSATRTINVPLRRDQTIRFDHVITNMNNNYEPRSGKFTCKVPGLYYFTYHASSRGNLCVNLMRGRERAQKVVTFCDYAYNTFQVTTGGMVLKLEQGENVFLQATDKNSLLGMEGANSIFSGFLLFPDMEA
T7 sequence (P02747 29-245 limits assumed, chain 3 of 3): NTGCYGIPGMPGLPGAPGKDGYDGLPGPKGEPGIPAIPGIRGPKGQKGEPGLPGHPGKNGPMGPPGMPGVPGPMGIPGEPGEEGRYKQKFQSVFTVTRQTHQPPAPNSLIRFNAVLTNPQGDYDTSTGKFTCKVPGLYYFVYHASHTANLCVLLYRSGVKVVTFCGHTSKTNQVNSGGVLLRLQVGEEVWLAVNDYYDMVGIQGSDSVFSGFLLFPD
Protocol: In additional studies, the ability of the unconjugated anti-FGFR2 antibodies to bind the complement factor Clq was evaluated. […] In order to monitor the amount of bound antibody analyte on the microtiterplate, this procedure was performed twice per plate utilizing the second dilution (in triplicate) for determining the coating efficacy of the analyte to the plate.

Human FGFR2 IIIb D1-3 [8] = biological target: T1, Human FGFR2 IIIb D1-3; assay: SPR Biacore, method as Example 2

Binder | Kd (Human FGFR2 IIIb D1-3 [2]) | Kd (Mouse FGFR2 IIIb D1-3) | Kd (Rat FGFR2 IIIb D1-3) | Kd (Human FGFR2 IIIb D1-3 [3]) | Kd [4] | other results
B1 | – | – | – | – | – | Kd (Human FGFR2 IIIb D1-3 [1]): 9 nM
B2 | 15 nM | 15 nM | 16 nM | 15 nM | 5.6 nM | binding result (Human FGFR4 ECD): binds
B3 | 2.7 nM | 3.1 nM | 5.1 nM | 2.7 nM | 2.4 nM | –
B4 | – | – | – | – | – | Kd (Human FGFR2 IIIb D1-3 [5]): 0.11 nM
B5 | 2 nM | – | – | 19 nM | 16 nM | Kd (Human FGFR2 IIIb D1-3 [6]): 2 nM; Kd [7]: 9 nM; binding result (FGFR2 D2-D3 Construct): binds; C1q binding capacity against the other antibodies (complement factor Clq): ~2 fold
B6 | – | – | – | – | – | Kd (Human FGFR2 IIIb D1-3 [8]): 3.1 nM
B7 | 5.1 nM | 7.7 nM | 9.7 nM | 5.1 nM | 7.4 nM | binding result (Human FGFR4 ECD): binds
B8 | 3.3 nM | 130 nM | 140 nM | 26 nM | 7.3 nM | –
